Data reported in patent US20140087995A1 (published 2014).
Blank lines part the entries; values can stand above or below the binder they belong to. Numbered stars: 1 amine (or outer) side, 2 acyl side, 3 side chain; on linkers, the order of the positions; unused ones are H or OH. Bridge positions count the residues as written; N and C are the ends. Side chains are listed from the residue outwards. Ends that are not written are not given here. * marks the point of attachment. C20 diacid = O=C(O)CCCCCCCCCCCCCCCCCCC(=O)*; γGlu = O=C(O)[C@H](CCC(=O)[*:2])N[*:1]; AEEA = NCCOCCOCC(=O)O

Key:
[1] = target: T1, human calcitonin receptor (human, UniProt P30988 25-474); assay: ratio IC50 hCTR / IC50 hAmylin-R (reference: human amylin receptor), SPA competition assays
T1 construct: whole, on cells; Assay used cell membranes, not intact cells; also called hCTR; hCT
T1 sequence (looked up): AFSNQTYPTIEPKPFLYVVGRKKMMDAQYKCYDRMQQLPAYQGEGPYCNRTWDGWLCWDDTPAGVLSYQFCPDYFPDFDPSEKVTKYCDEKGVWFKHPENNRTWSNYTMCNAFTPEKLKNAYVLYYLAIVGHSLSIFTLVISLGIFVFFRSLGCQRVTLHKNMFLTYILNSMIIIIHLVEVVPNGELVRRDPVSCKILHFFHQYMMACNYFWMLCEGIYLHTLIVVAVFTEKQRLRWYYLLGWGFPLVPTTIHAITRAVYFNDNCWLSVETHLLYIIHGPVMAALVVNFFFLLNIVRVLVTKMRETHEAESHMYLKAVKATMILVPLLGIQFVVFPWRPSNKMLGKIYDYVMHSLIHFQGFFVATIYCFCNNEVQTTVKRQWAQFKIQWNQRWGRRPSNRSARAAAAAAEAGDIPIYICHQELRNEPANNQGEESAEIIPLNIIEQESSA
Procedure: The resulting pellet was resuspended, homogenized and centrifuged (20.000 rpm, 15 min) in a buffer containing 20 mM Na-HEPES and 0.1 mM EDTA (pH 7.4, buffer 2). The resulting pellet was resuspended in buffer 2 and protein concentration was measured (BCA protein Assay, Pierce). The homogenate was kept cold during the whole procedure. The membranes were kept at −80° C. until use. The assay was performed in a 384 well Optiplate (PerkinElmer) in a total volume of 40 ul. Membranes were mixed with SPA beads. Final concentration of membranes 35 ng/μL final and SPA beads was 0.05 mg/well. Test-compounds were dissolved in DMSO and further diluted in assay buffer (50 mM Hepes, pH 7.4, 1 mM CaCl2, 5 mM MgCl₂, 0.1% OA and 0.02% Tween20). […] The final mixture was incubated with shaking at 400 rpm for 120 min at 25° C. prior to centrifugation (1500 rpm, 10 min). Samples were analyzed on TopCounter™ (Packard). The IC₅₀ was calculated using (one site binding competition analysis) GraphPad Prism5 as a measure of receptor affinity.
Membranes were prepared in the following way; the cells were rinsed with PBS and incubated with Versene for approximately 5 min before harvesting. The cells were flushed with PBS and the cell-suspension was centrifuged for 5 min at 1000 rpm. Cells were homogenized (Ultrathurrax) in a buffer containing 20 mM Na-HEPES and 10 mM EDTA (pH 7.4) and centrifuged at 20.000 rpm for 15 min. The resulting pellet was resuspended, homogenized and centrifuged (20.000 rpm, 15 min) in a buffer containing 20 mM Na-HEPES and 0.1 mM EDTA (pH 7.4, buffer 2). The resulting pellet was resuspended in buffer 2 and protein concentration was measured (BCA protein Assay, Pierce). The homogenate was kept cold during the whole procedure. The membranes were kept at −80° C. until use. Assay was performed in a 384 well Optiplate (PerkinElmer) in a total volume of 40 ul. Membranes were mixed with SPA beads.

[2] = target: T1, human calcitonin receptor; assay: SPA competition with 125I-calcitonin on membranes of BHK cells with human calcitonin receptor (Assay VII)
Procedure: Membranes were prepared in the following way; the cells were rinsed with PBS and incubated with Versene for approximately 5 min before harvesting. The cells were flushed with PBS and the cell-suspension was centrifuged for 5 min at 1000 rpm. Cells were homogenized (Ultrathurrax) in a buffer containing 20 mM Na-HEPES and 10 mM EDTA (pH 7.4) and centrifuged at 20.000 rpm for 15 min. The resulting pellet was resuspended, homogenized and centrifuged (20.000 rpm, 15 min) in a buffer containing 20 mM Na-HEPES and 0.1 mM EDTA (pH 7.4, buffer 2). The resulting pellet was resuspended in buffer 2 and protein concentration was measured (BCA protein Assay, Pierce). The homogenate was kept cold during the whole procedure. The membranes were kept at −80° C. until use. Assay was performed in a 384 well Optiplate (PerkinElmer) in a total volume of 40 ul. Membranes were mixed with SPA beads. Final concentration of membranes 35 ng/μL final and Final concentration of SPA beads was 0.05 mg/well. Test-compounds were dissolved in DMSO and further diluted in assay buffer (50 mM Hepes, pH 7.4, 1 mM CaCl2, 5 mM MgCl₂, 0.1% OA and 0.02% Tween20). […] The final mixture was incubated for 120 min with shaking at 400 rpm at 25° C. prior to centrifugation (1500 rpm, 10 min). Samples were analyzed on TopCounter™ (Packard). The […] was calculated using (one site binding competition analysis) GraphPad Prism5 as a measure of receptor affinity.

[3] = target: T2, human amylin receptor (amylin 3(a) receptor: human calcitonin receptor with RAMP-3) (human, UniProt P30988 25-474; O60896 24-148); assay: SPA competition with 125I-rat amylin on membranes of BHK cells with human calcitonin receptor and RAMP-3 (Assay V)
T2 construct: whole, on cells; Assay used cell membranes of the Amylin 3(a)/CRE-luc BHK cells, not intact cells; also called hAmylin-R; hAmylinR
T2 sequence (looked up) 1: T1 sequence (looked up)
T2 sequence (looked up) 2: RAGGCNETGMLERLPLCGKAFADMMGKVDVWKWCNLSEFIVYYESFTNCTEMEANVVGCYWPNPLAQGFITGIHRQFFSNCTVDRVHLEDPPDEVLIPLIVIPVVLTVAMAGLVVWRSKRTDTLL
Procedure: The binding assay was performed using scintillation proximity assay (SPA) beads (RPNQ0001) from PerkinElmer and cell membranes from the Amylin 3(a)/CRE-luc cells (as described in Assay (II)) were used. Membranes were prepared in the following way; the cells were rinsed with PBS and incubated with Versene for approximately 5 min before harvesting. The cells were flushed with PBS and the cell-suspension was centrifuged for 5 min at 1000 rpm. Cells were homogenized (ultrathurrax) in a buffer containing 20 mM Na-HEPES and 10 mM EDTA (pH 7.4) and centrifuged at 20.000 rpm for 15 min. The resulting pellet was resuspended, homogenized and centrifuged (20.000 rpm, 15 min) in a buffer containing 20 mM Na-HEPES and 0.1 mM EDTA (pH 7.4, buffer 2). The resulting pellet was resuspended in buffer 2 and protein concentration was measured (BCA protein Assay, Pierce). The homogenate was kept cold during the whole procedure. The membranes were kept at −80° C. until use. The assay was performed in a 384 well Optiplate (PerkinElmer) in a total volume of 40 ul. Membranes were mixed with SPA beads. Final concentration of membranes 35 ng/μL final and SPA beads was 0.05 mg/well. Test-compounds were dissolved in DMSO and further diluted in assay buffer (50 mM Hepes, pH 7.4, 1 mM CaCl2, 5 mM MgCl₂, 0.1% OA and 0.02% Tween20). […] The final mixture was incubated with shaking at 400 rpm for 120 min at 25° C. prior to centrifugation (1500 rpm, 10 min). Samples were analyzed on TopCounter™ (Packard). The IC₅₀ was calculated using (one site binding competition analysis) GraphPad Prism5 as a measure of receptor affinity.

- Ratio hCT/hAmylin binding [1]: 74.1
- IC50 [2]: 6.74 nM
- IC50 [3]: 0.091 nM
B1: N^ε1-[2-[2-[2-[[2-[2-[2-[[(4S)-4-carboxy-4-(19-carboxynonadecanoylamino)butanoyl]amino]ethoxy]ethoxy]acetyl]amino]ethoxy]ethoxy]acetyl]-[Arg17,Pro21,Pro27,Pro34 … (peptide)
peptide: K([AEEA-AEEA-γGlu-C20 diacid])CNTATCATQRLANFLRHSSPNFGAIPSSTNVGPNTY-NH2
modifications: disulfide 2-7; N-terminus assumed
SMILES: CC[C@H](C)[C@H](NC(=O)[C@H](C)NC(=O)CNC(=O)[C@H](Cc1ccccc1)NC(=O)[C@H](CC(N)=O)NC(=O)[C@@H]1CCCN1C(=O)[C@H](CO)NC(=O)[C@H](CO)NC(=O)[C@H](Cc1c[nH]cn1)NC(=O)[C@H](CCCNC(=N)N)NC(=O)[C@H](CC(C)C)NC(=O)[C@H](Cc1ccccc1)NC(=O)[C@H](CC(N)=O)NC(=O)[C@H](C)NC(=O)[C@H](CC(C)C)NC(=O)[C@H](CCCNC(=N)N)NC(=O)[C@H](CCC(N)=O)NC(=O)[C@@H](NC(=O)[C@H](C)NC(=O)[C@@H]1CSSC[C@H](NC(=O)[C@@H](N)CCCCNC(=O)COCCOCCNC(=O)COCCOCCNC(=O)CC[C@H](NC(=O)CCCCCCCCCCCCCCCCCCC(=O)O)C(=O)O)C(=O)N[C@@H](CC(N)=O)C(=O)N[C@@H]([C@@H](C)O)C(=O)N[C@@H](C)C(=O)N[C@@H]([C@@H](C)O)C(=O)N1)[C@@H](C)O)C(=O)N1CCC[C@H]1C(=O)N[C@@H](CO)C(=O)N[C@@H](CO)C(=O)N[C@H](C(=O)N[C@@H](CC(N)=O)C(=O)N[C@H](C(=O)NCC(=O)N1CCC[C@H]1C(=O)N[C@@H](CC(N)=O)C(=O)N[C@H](C(=O)N[C@@H](Cc1ccc(O)cc1)C(N)=O)[C@@H](C)O)C(C)C)[C@@H](C)O
notes: also called compound 98

- Ratio hCT/hAmylin binding [1]: 42.2
- IC50 [2]: 2.57 nM
- IC50 [3]: 0.061 nM
B2: N^ε1-[2-[2-[2-(19-carboxynonadecanoylamino)ethoxy]ethoxy]acetyl]-[His14,Arg17,Pro21,Pro27]-h-amylin (peptide)
peptide: K([AEEA-C20 diacid])CNTATCATQRLAHFLRHSSPNFGAIPSSTNVGSNTY-NH2
modifications: disulfide 2-7; N-terminus assumed
SMILES: CC[C@H](C)[C@H](NC(=O)[C@H](C)NC(=O)CNC(=O)[C@H](Cc1ccccc1)NC(=O)[C@H](CC(N)=O)NC(=O)[C@@H]1CCCN1C(=O)[C@H](CO)NC(=O)[C@H](CO)NC(=O)[C@H](Cc1c[nH]cn1)NC(=O)[C@H](CCCNC(=N)N)NC(=O)[C@H](CC(C)C)NC(=O)[C@H](Cc1ccccc1)NC(=O)[C@H](Cc1c[nH]cn1)NC(=O)[C@H](C)NC(=O)[C@H](CC(C)C)NC(=O)[C@H](CCCNC(=N)N)NC(=O)[C@H](CCC(N)=O)NC(=O)[C@@H](NC(=O)[C@H](C)NC(=O)[C@@H]1CSSC[C@H](NC(=O)[C@@H](N)CCCCNC(=O)COCCOCCNC(=O)CCCCCCCCCCCCCCCCCCC(=O)O)C(=O)N[C@@H](CC(N)=O)C(=O)N[C@@H]([C@@H](C)O)C(=O)N[C@@H](C)C(=O)N[C@@H]([C@@H](C)O)C(=O)N1)[C@@H](C)O)C(=O)N1CCC[C@H]1C(=O)N[C@@H](CO)C(=O)N[C@@H](CO)C(=O)N[C@H](C(=O)N[C@@H](CC(N)=O)C(=O)N[C@H](C(=O)NCC(=O)N[C@@H](CO)C(=O)N[C@@H](CC(N)=O)C(=O)N[C@H](C(=O)N[C@@H](Cc1ccc(O)cc1)C(N)=O)[C@@H](C)O)C(C)C)[C@@H](C)O
notes: also called compound 90

- Ratio hCT/hAmylin binding [1]: 101
- IC50 [2]: 12 nM
- IC50 [3]: 0.119 nM
B3: N^ε1-[2-[2-[2-(19-carboxynonadecanoylamino)ethoxy]ethoxy]acetyl]-[Arg17,Pro21,Pro27,His34]-h-amylin (peptide)
peptide: K([AEEA-C20 diacid])CNTATCATQRLANFLRHSSPNFGAIPSSTNVGHNTY-NH2
modifications: disulfide 2-7; N-terminus assumed
SMILES: CC[C@H](C)[C@H](NC(=O)[C@H](C)NC(=O)CNC(=O)[C@H](Cc1ccccc1)NC(=O)[C@H](CC(N)=O)NC(=O)[C@@H]1CCCN1C(=O)[C@H](CO)NC(=O)[C@H](CO)NC(=O)[C@H](Cc1c[nH]cn1)NC(=O)[C@H](CCCNC(=N)N)NC(=O)[C@H](CC(C)C)NC(=O)[C@H](Cc1ccccc1)NC(=O)[C@H](CC(N)=O)NC(=O)[C@H](C)NC(=O)[C@H](CC(C)C)NC(=O)[C@H](CCCNC(=N)N)NC(=O)[C@H](CCC(N)=O)NC(=O)[C@@H](NC(=O)[C@H](C)NC(=O)[C@@H]1CSSC[C@H](NC(=O)[C@@H](N)CCCCNC(=O)COCCOCCNC(=O)CCCCCCCCCCCCCCCCCCC(=O)O)C(=O)N[C@@H](CC(N)=O)C(=O)N[C@@H]([C@@H](C)O)C(=O)N[C@@H](C)C(=O)N[C@@H]([C@@H](C)O)C(=O)N1)[C@@H](C)O)C(=O)N1CCC[C@H]1C(=O)N[C@@H](CO)C(=O)N[C@@H](CO)C(=O)N[C@H](C(=O)N[C@@H](CC(N)=O)C(=O)N[C@H](C(=O)NCC(=O)N[C@@H](Cc1c[nH]cn1)C(=O)N[C@@H](CC(N)=O)C(=O)N[C@H](C(=O)N[C@@H](Cc1ccc(O)cc1)C(N)=O)[C@@H](C)O)C(C)C)[C@@H](C)O
notes: also called compound 91
